In patent publication US6808893 (Johns Hopkins, dated 2004):

Columns and labels:
[1] = target: T1, myc-tagged full-length GTRAP4-41 (rat, UniProt Q9QWN8 2-2388); assay: co-immunoprecipitation from transfected HEK 293T cells
T1 construct: tested from solubilized cell extract; also called myc-tagged GTRAP4-41; not shown: myc tag of the myc-tagged pRK5 vector

[2] = target: the molecule itself; assay: immunoblot of tissue homogenates and purified protein
[3] = target: T2, GLAST glutamate transporter (rat, UniProt P24942 1-543); assay: co-immunoprecipitation from rat brain extract, Western blotting
T2 construct: whole, on cells; Native protein in solubilized rat brain
T2 sequence (looked up): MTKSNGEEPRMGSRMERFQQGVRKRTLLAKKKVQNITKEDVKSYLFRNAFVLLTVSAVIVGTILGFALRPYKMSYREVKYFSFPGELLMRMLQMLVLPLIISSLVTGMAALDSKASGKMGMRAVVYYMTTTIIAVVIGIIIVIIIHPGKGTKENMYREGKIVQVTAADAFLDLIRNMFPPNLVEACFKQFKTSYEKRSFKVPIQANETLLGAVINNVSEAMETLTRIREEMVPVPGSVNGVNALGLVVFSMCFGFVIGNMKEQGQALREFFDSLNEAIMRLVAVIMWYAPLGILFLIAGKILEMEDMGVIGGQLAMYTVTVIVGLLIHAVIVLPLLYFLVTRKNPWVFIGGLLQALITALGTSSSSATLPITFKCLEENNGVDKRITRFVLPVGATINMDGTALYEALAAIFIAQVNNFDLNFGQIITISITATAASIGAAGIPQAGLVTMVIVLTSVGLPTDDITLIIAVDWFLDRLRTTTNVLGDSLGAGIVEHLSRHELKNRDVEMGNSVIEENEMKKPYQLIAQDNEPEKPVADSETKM

[4] = target: T3, GLT-1 glutamate transporter (rat, UniProt P31596 1-573); assay: as above
T3 construct: whole, on cells; Native protein in solubilized rat brain

[5] = target: T4, EAAT4, full-length glutamate transporter (rat, UniProt O35921 1-561); assay: as above
T4 construct: whole, on cells; tested from detergent lysates; also called rEAAT4; rat EAAT4
T4 sequence (looked up): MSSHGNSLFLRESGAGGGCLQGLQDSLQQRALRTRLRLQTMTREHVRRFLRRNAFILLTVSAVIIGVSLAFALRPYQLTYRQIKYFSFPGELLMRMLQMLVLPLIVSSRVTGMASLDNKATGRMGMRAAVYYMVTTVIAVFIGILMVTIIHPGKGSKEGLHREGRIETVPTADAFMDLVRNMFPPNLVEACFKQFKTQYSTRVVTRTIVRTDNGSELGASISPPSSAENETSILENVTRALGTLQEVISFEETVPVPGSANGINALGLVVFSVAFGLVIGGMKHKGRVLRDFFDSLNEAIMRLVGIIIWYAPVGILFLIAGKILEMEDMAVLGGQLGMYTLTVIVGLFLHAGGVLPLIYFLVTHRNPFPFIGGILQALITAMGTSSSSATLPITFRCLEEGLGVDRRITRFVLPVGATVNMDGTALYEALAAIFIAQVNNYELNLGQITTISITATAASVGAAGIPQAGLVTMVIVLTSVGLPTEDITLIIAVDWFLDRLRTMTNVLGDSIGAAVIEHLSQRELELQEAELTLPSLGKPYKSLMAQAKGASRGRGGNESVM

[6] = target: T5, GST (glutathione S-transferase) alone (UniProt P08515 1-218 = GST); assay: cell-free binding to protein immobilized on glutathione-Sepharose
T5 construct: Control, immobilized on glutathione-Sepharose
Description: The interaction of GTRAP3-18 with EAAC1 was examined using in vitro and in vivo methods. For in vitro cell-free binding, EAAC1 was expressed as a fusion protein with glutathione S-transferase (GST), and GTRAP3-18 was produced and labeled with [^35S]-methionine by in vitro transcription and translation. Purified GST or GST-EAAC 1 fusion proteins immobilized on glutathione-Sepharose were incubated with [^35S]-labeled GTRAP3-18 protein. GTRAP3-18 specifically binds to immobilized GST-EAAC1 but not to GST alone, indicating an in vitro interaction.

[7] = target: T4, EAAT4, full-length glutamate transporter; assay: co-immunoprecipitation from transfected HEK293 cells
Description: (§1) Immunoprecipitation experiments were performed to test if EAAC1 and GTRAP3-18 interact in vivo. This was first examined in transfected HEK293 cells using amino-terminus c-myc tagged GTRAP3-18. EAAC1 is co-immunoprecipitated with c-myc-GTRAP3-18 in the cell extract prepared from co-expression cells but not from EAAC1 or c-myc-GTRAP3-18 single expression cells. […] This interaction was specific, since EAAT4, another neuronal glutamate transporter subtype, is not immunoprecipitated with c-myc-GTRAP3-18. Identical results are obtained using COS-7 and C6 glioma cell lines.

[8] = target: T6, truncated EAAC1 lacking the interacting carboxy-terminal domain (lacking the last 93 amino acids) (UniProt P51907 1-430); assay: as above
T6 construct: domain: EAAC1 lacking the last 93 amino acids
T6 sequence (looked up): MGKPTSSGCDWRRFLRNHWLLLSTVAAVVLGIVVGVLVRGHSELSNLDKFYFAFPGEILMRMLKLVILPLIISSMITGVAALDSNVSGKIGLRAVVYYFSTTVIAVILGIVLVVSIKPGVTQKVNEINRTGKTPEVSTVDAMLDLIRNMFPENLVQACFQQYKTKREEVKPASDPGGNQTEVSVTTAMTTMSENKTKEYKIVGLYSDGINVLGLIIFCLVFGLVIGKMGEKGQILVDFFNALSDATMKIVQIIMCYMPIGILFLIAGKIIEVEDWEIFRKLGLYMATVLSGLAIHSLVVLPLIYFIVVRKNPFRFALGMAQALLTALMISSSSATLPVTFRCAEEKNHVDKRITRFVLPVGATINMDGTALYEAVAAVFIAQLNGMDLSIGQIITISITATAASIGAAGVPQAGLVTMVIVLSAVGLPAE
Description: as §1

T3 sequence (P31596 whole entry): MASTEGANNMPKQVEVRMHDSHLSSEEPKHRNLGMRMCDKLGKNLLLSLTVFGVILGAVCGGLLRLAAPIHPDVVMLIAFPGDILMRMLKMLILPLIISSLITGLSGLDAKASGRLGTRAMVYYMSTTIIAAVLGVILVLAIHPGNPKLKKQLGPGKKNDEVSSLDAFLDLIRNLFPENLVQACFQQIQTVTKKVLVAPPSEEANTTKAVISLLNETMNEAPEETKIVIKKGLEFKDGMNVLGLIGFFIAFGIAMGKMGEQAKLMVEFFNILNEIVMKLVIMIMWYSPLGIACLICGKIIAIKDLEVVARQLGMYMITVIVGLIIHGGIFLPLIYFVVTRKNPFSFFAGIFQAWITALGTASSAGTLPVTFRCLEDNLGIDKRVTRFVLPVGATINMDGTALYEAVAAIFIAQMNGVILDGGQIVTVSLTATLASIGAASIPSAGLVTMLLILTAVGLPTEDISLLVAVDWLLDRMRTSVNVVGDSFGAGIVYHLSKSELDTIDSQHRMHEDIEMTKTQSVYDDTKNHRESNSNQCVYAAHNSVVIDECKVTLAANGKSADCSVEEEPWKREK
T5 sequence (P08515 whole entry): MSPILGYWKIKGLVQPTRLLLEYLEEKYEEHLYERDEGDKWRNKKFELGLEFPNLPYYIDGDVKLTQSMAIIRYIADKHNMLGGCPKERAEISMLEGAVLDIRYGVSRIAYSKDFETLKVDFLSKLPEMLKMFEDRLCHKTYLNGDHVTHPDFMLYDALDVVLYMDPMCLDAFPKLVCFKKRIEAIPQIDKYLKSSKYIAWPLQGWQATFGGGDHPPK
T1 sequence (Q9QWN8 other isoform, or with tags, fused parts or gaps): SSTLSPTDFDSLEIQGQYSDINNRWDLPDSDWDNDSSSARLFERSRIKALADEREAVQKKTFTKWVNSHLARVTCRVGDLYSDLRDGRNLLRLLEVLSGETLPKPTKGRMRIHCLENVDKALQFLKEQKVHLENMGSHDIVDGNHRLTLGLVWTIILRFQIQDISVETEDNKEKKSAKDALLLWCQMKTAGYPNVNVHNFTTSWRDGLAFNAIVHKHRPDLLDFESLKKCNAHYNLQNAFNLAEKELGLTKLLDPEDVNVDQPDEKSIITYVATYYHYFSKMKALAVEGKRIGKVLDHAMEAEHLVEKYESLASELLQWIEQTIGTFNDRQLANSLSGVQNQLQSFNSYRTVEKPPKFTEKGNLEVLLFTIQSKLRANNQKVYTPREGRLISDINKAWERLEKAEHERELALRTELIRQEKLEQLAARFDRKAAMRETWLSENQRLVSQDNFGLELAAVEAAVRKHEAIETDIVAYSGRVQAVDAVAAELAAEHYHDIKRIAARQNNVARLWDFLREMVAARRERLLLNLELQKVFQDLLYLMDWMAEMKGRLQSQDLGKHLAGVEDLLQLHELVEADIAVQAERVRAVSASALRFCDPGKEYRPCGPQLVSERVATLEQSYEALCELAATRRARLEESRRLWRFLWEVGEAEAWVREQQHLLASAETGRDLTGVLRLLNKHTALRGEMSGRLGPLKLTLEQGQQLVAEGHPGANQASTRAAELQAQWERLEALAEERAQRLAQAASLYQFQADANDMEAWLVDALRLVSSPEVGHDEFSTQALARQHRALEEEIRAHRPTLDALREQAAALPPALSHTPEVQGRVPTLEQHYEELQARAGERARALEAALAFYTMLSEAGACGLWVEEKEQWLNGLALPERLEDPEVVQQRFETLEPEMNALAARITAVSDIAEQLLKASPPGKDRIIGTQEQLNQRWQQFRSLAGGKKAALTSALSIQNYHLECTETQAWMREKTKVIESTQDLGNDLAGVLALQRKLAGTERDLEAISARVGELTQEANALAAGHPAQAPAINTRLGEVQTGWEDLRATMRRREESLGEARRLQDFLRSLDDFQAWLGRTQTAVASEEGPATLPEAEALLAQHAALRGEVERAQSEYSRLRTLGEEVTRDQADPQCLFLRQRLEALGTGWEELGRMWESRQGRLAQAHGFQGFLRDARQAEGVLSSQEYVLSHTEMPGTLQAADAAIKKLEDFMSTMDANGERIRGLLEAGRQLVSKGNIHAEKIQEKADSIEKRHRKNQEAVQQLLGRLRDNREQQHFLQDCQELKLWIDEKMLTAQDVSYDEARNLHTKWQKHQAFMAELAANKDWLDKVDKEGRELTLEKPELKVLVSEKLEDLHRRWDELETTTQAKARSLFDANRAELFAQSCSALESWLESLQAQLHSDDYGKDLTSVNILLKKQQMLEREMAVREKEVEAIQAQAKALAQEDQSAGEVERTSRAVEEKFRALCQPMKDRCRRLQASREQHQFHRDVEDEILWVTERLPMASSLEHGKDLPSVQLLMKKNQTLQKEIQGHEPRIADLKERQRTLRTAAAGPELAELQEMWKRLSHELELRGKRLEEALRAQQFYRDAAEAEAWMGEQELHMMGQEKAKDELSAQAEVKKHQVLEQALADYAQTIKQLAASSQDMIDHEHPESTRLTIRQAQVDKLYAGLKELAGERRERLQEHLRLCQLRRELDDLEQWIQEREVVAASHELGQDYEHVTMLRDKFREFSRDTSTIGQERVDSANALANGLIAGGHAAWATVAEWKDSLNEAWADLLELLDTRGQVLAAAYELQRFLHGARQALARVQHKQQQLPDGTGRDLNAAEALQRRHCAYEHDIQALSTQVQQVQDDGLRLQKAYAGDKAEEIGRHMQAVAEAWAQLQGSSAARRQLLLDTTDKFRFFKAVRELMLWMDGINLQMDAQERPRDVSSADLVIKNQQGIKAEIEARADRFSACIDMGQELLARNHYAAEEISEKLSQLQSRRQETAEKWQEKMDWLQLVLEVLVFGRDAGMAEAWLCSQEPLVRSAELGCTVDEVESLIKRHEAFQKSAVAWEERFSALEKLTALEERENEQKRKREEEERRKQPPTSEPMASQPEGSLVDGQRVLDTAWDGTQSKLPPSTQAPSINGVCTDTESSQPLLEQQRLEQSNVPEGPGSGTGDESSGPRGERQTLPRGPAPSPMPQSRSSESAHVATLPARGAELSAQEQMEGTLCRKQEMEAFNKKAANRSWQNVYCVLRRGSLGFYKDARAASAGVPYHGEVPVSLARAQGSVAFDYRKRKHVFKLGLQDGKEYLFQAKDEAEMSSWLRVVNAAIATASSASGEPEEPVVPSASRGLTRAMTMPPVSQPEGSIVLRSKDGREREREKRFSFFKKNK

B1: myc-tagged full-length GTRAP4-48 (other)
chain: MSIRLPHSIDRSASKKQSHLSSPIASWLSSLSSLGDSTPERTSPSHHRQPSDTSETTAGLVQRCVIIQKDQHGFGFTVSGDRIVLVQSVRPGGAAMKAGVKEGDRIIKVNGTMVTNSSHLEVVKLIKSGAYAALTLLGSSPPSVGVSGLQQNPSVAGVLRVNPIIPPPPPPPPLPPPQHITGPKPLQDPEVQKHATQILWNMLRQEEEELQDILPPCGETSQRTCEGRLSVDSQEADSGLDSGTERFPSISESLMNRNSVLSDPGLDSPQTSPVILARVAQHHRRQGSDAALLPLNHQGIDQSPKPLIIGPEEDYDPGYFNNESDIIFQDLEKLKSHPAYLVVFLRYILSQADPGPLLFYLCSEVYQQTNPKDSRSLGKDIWNIFLEKNAPLRVKIPEMLQAEIDLRLRNNEDPRNVLCEAQEAVMLEIQEQINDYRSKRTLGLGSLYGENDLLGLDGDPLRERQMAEKQLAALGDILSKYEEDRSAPMDFAVNTFMSHAGIRLRESRSSCTAEKTQSAPDKDKWLPFFPKTKKQSSNSKKEKDALEDKKRNPILRYIGKPKSSSQSIKPGNVRNIIQHFENSHQYDVPEPGTQRLSTGSFPEDLLESDSSRSEIRLGRSGSLKGREEMKRSRKAENVPRPRSDVDMDAAAEAARLHQSASSSASSLSTRSLENPTPPFTPKMGRRSIESPNLGFCTDVILPHLLEDDLGQLSDLEPEPEVQNWQHTVGKDVVANLTQREIDRQEVINELFVTEASHLRTLRVLDLIFYQRMRKENLMPREELARLFPNLPELIEIHNSWCEAMKKLREEGPIIRDISDPMLARFDGPAREELQQVAAQFCSYQSVALELIRTKQRKESRFQLFMQEAESHPQCRRLQLRDLIVSEMQRLTKYPLLLENIIKHTEGGTSEHEKLCRARDQCREILKFVNEAVKQTENRHRLEGYQKRLDATALERASNPLAAEFKSLDLTTRKMIHEGPLTWRISKDKTLDLQVLLLEDLVVLLQRQEERLLLKCHSKTAVGSSDSKQTFSPVLKLNAVLIRSVATDKRAFFIICTSELGPPQIYELVALTSSDKNIWMELLEEAVQNATKHPGAAPIPIHPSPPGSQEPAYQGSTSSRVEINDSEVYHTEKEPKKLPEGPGPEQRVQDKQLIAQGEPVQEEDEEELRTLPRAPPSLDGENRGIRTRDPVLLALTGPLLMEGLADAALEDVENLRHLILWSLLPGHTVKTQAAGEPEDDLTPTPSVVSITSHPWDPGSPGQAPTISDSTRLARPEGSQPEGEDVAVSSLAHLPPRTRSSGVWDSPELDRNPAAEAASTEPAASYKVVRKVSLLPGGGVGAAKVAGSNAIPDSGQSESELSEVEGGAQATGNCFYVSMPAGPLDSSTEPTGTPPSPSQCHSLPAWPTEPQPYRGVRGGQCSSLVRRDVDVIFHTIEQLTIKLHRLKDMELAHRELLKSLGGESSGGTTPVGSFHTEAARWTDYSLSPPAKEALASDSQNGQEQGSCPEEGSDIALEDSATDTAVSPGP
notes: tested from solubilized cell extract; also called myc-tagged GTRAP4-48; not shown: myc tag of the myc-tagged pRK5 vector
binding result [1]: no binding

B2: GTRAP3-18 (glutamate transporter EAAC1 associated protein), full-length (other)
chain: MDVNLAPLRAWDDFFPGSDRFARPDFRDISKWNNRVVSNLLYYQTNYLVVAAMMISVVGFLSPFNMILGGIIVVLVFTGFVWAAHNKDILRRMKKQYPTAFVMVVMLASYFLISMFGGVMVFVFGITFPLLLMFIHASLRLRNLKNKLENKMEGIGLKKTPMGIILDALEQQEDSINKFADYISKARE
notes: Used for native GTRAP3-18 of rat brain and tissue homogenates, for 'purified GTRAP3-18 protein' and for GTRAP3-18 expressed where no tag is stated; also called rat JWA protein homologue
binding result [2]: binds
binding result [3]: no binding
binding result [4]: no binding
binding result [5]: no binding

B3: [35S]-methionine labelled GTRAP3-18 made by in vitro transcription and translation (other)
chain: MDVNLAPLRAWDDFFPGSDRFARPDFRDISKWNNRVVSNLLYYQTNYLVVAAMMISVVGFLSPFNMILGGIIVVLVFTGFVWAAHNKDILRRMKKQYPTAFVMVVMLASYFLISMFGGVMVFVFGITFPLLLMFIHASLRLRNLKNKLENKMEGIGLKKTPMGIILDALEQQEDSINKFADYISKARE
modifications: labeled with [35S]-methionine
notes: also called [35S]-labeled GTRAP3-18 protein
binding result [6]: no binding

B4: amino-terminus c-myc tagged GTRAP3-18 (other)
chain: MDVNLAPLRAWDDFFPGSDRFARPDFRDISKWNNRVVSNLLYYQTNYLVVAAMMISVVGFLSPFNMILGGIIVVLVFTGFVWAAHNKDILRRMKKQYPTAFVMVVMLASYFLISMFGGVMVFVFGITFPLLLMFIHASLRLRNLKNKLENKMEGIGLKKTPMGIILDALEQQEDSINKFADYISKARE
notes: Expressed in HEK293 (also COS-7 and C6 glioma) cells; also called c-myc-GTRAP3-18; not shown: c-myc tag at the amino-terminus
binding result [7]: no binding
binding result [8]: no binding
